83 variants from the RNAGym collection of RNA variant scans (doi:10.1093/molbev/msab373) can be followed below.

Sequences and labels used below:
B1: Azoarcus group I ribozyme (parent)
chain: GUGCCUUGCGCCGGGAAACCACGCAAGGGAUGGUGUCAAAUUCGGCGAAACCUAAGCGCCCGCCCGGGCGUAUGGCAACGCCGAGCCAAGCUUCGGCGCCUGCGCCGAUGAAGGUGUAGAGACUAGACGGCACCCACCUAAGGCAAACGCUAUGGUGAAGGCAUAGUCCAGGGAGUGGCGAAAGUCACACAAACCGG

The variants in this data set derive from B1. In words: reverse-splicing fitness (ratio to wild type); higher = more active; in vitro selection; Mg2+ level not given. The method, boiled down: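 An in vitro group I ribozyme library with randomized positions was T7-transcribed and gel-purified. In triplicate, 10 pmol RNA in EPPS pH 7.5 was reacted with 50 pmoles of a 30-nt RNA substrate for 1 h at 37 °C across several added MgCl2 levels (1–48 mM), then stopped with EDTA. Products were reverse transcribed from a substrate-complementary primer, PCR-amplified and sequenced (HiSeq 4000). Fitness is a variant's read proportion after selection over that before, normalised to wild type.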
In the case of A111C A145C C150G C169U U176C, the reverse-splicing fitness is 0.0119.
Consider A111C A145C C150G C169U U176A, for which the reverse-splicing fitness came out at 0.00817.
A111C A145C C150G C169U U176G: the reverse-splicing fitness turned out to be 0.00607.
With A111C A145U C150G C169A U176G, the reverse-splicing fitness worked out at 0.007.
As for A111C A145U C150G C169A U176A, the reverse-splicing fitness was found to be 0.00872.
The value for A111C A145U C150G C169A U176C was 0.011; that for A111C A145U C150G C169A was 0.00994; that for A111C A145U C150G C169U was 0.0178.
The value for A111C A145U C150G C169G was 0.0101; that for A111G A120C A145C C150A C169U was 0.0193.
In the case of A111G A120C A145C C150A C169G, the reverse-splicing fitness is 0.00815.
Regarding A111G A120C A145C C150A C169A, the reverse-splicing fitness came out at 0.00705.
For A111C C150G C169A, the reverse-splicing fitness was 0.00834.
Take A111C C150G C169G: the reverse-splicing fitness was 0.00897.
In the case of A111C C150G C169U, the reverse-splicing fitness was found to be 0.0134.
As to A111C A145G C150U C169U U176C, the reverse-splicing fitness stood at 0.0254.
The value for A111C A145G C150U C169U U176A was 0.0237.
Under A111C A145G C150U C169U U176G stands 0.00751; under A111G A120C A145C C150G C169G U176A, 0.00746.
Regarding A111G A120C A145C C150G C169G U176G, the reverse-splicing fitness was found to be 0.0036.
Under A111G A120C A145C C150G C169G U176C stands 0.00487.
Under A111C C150U C169A U176G stands 0.00796.
Turning to A111C C150U C169A U176C, the reverse-splicing fitness was 0.0136.
Under A111C C150U C169A U176A stands 0.0164; under A111C A145C C150G, 0.246; under A111C A145C C150U, 0.554.
Regarding A111C A145C C150A, the reverse-splicing fitness worked out at 0.15.
Regarding A111C A145C C150U C169A U176G, the reverse-splicing fitness turned out to be 0.00708.
The value for A111C A145C C150U C169A U176C was 0.00847; that for A111C A145C C150U C169A U176A was 0.0139; that for A111C A145U C150G C169U U176A was 0.0095.
A111C A145U C150G C169U U176C: the reverse-splicing fitness is 0.0134.
Under A111C A145U C150G C169U U176G stands 0.00683; under A111C A145U C150A C169A, 0.0106; under A111C A145U C150A C169U, 0.0179.
The value for A111C A145U C150A C169G was 0.0113; that for A111G A120C A145C C150G C169A U176A was 0.00532.
On to A111G A120C A145C C150G C169A U176C, for which the reverse-splicing fitness was determined as 0.00524.
With A111G A120C A145C C150G C169A U176G, the reverse-splicing fitness came to 0.00452.
Regarding A111G A120C A145C C150A C169U U176A, the reverse-splicing fitness worked out at 0.016.
For A111G A120C A145C C150A C169U U176G, the reverse-splicing fitness turned out to be 0.00433.
Under A111G A120C A145C C150A C169U U176C stands 0.012; under A111C A120U C169U U176G, 0.00263; under A111C A120U C169U U176A, 0.0143.
The value for A111C A120U C169U U176C was 0.0214; that for A111C A145U C150A C169U U176C was 0.0154; that for A111C A145U C150A C169U U176A was 0.0176.
Under A111C A145U C150A C169U U176G stands 0.00751; under A111C A145U C169A U176C, 0.018.
In the case of A111C A145U C169A U176A, the reverse-splicing fitness came to 0.0141.
In the case of A111C A145U C169A U176G, the reverse-splicing fitness is 0.00736.
Under A111C A145U C150U C169G U176G stands 0.00734; under A111C A145U C150U C169G U176C, 0.0215.
Under A111C A145U C150U C169G U176A stands 0.0147; under A111G A120C A145C C150G C169A, 0.00873.
For the variant A111G A120C A145C C150G C169U, the reverse-splicing fitness stood at 0.0377.
Under A111G A120C A145C C150G C169G stands 0.00666.
Under A111C C169G U176G stands 0.00725.
As to A111C C169G U176A, the reverse-splicing fitness was found to be 0.0217.
Under A111C C169G U176C stands 0.0355; under A111C A145C U176A, 0.402.
The value for A111C A145C U176G was 0.217; that for A111C A145C U176C was 0.372; that for A111C A145C C169U U176A was 0.0278.
As for A111C A145C C169U U176C, the reverse-splicing fitness was 0.0254.
Under A111C A145C C169U U176G stands 0.00694; under A111G A120C A145C C169G U176C, 0.00881; under A111G A120C A145C C169G U176G, 0.00352.
Under A111G A120C A145C C169G U176A stands 0.0167; under A111C A145G C169U U176A, 0.0269; under A111C A145G C169U U176G, 0.00717.
For the variant A111C A145G C169U U176C, the reverse-splicing fitness was 0.0294.
For A111C A145C C169G U176C, the reverse-splicing fitness is 0.0318.
Under A111C A145C C169G U176A stands 0.0324; under A111C A145C C169G U176G, 0.00691; under A111C C150U C169U U176C, 0.0245.
The value for A111C C150U C169U U176A was 0.0241.
Under A111C C150U C169U U176G stands 0.00793; under A111C A145C C150U C169U U176G, 0.00818.
As to A111C A145C C150U C169U U176C, the reverse-splicing fitness amounted to 0.0139.
Under A111C A145C C150U C169U U176A stands 0.0174; under A111C C150A C169U, 0.019; under A111C C150A C169G, 0.0124.
